Reference: article PMC7545189, “Structural characterization of the ICOS/ICOS-L immune complex reveals high molecular mimicry by therapeutic antibodies” (Nature Communications, 2020)

B1: human ICOS ectodomain (residues 21-138), untagged, disulfide-linked homodimer [human] / human ICOS-L ectodomain (residues 19-248), His-tagged, immobilised on Ni-NTA biosensors [human] (parent)
chain 1: EINGSANYEMFIFHNGGVQILCKYPDIVQQFKMQLLKGGQILCDLTKTKGSGNTVSIKSLKFCHSQLSNNSVSFFLYNLDHSHANYYFCNLSIFDPPPFKVTLTGGYLHIYESQLCCQ
chain 2: DTQEKEVRAMVGSDVELSCACPEGSRFDLNDVYVYWQTSESKTVVTYHIPQNSSLENVDSRYRNRALMSPAGMLRGDFSLRLFNVTPQDEQKFHCLVLSQSLGFQEVLSVEVTLHVAANFSVPVVSAPHSPSQDELTFTCTSINGYPRPNVYWINKTDNSLLDQALQNDTVFLNMRGLYDVVSVLRIARTPSVNIGCCIENVLLQQNLTVGSQTGNDIGERDKITENPVS

Variants of: B1
Assay: BLI
Conditions: with human ICOS-L ectodomain (residues 19-248), parent: 9.8 nM, read off a plot

Row | Variant | Kd
1 | chain 1 EINGSANYEMFIFHNGGVQILCKYPDIVQQFKMQLLKGGQILCDLTKTKGSGNTVSIKSLKFCHSQLSNNSVSFFLYNLDHSHANYYFCQLSIFDPPPFKVTLTGGYLHIYESQLCCQ | 2.7 nM

Same assay, conditions: with human ICOS-L ectodomain (residues 19-248), parent: 0.0033, read off a plot

Row | Variant | koff
2 | chain 1 EINGSANYEMFIFHNGGVQILCKYPDIVQQFKMQLLKGGQILCDLTKTKGSGNTVSIKSLKFCHSQLSNNSVSFFLYNLDHSHANYYFCQLSIFDPPPFKVTLTGGYLHIYESQLCCQ | 0.0021 s⁻¹

Same assay, conditions: with human ICOS-L ectodomain (residues 19-248), parent: 3.3e+05, read off a plot

Row | Variant | kon
3 | chain 1 EINGSANYEMFIFHNGGVQILCKYPDIVQQFKMQLLKGGQILCDLTKTKGSGNTVSIKSLKFCHSQLSNNSVSFFLYNLDHSHANYYFCQLSIFDPPPFKVTLTGGYLHIYESQLCCQ | 730000 M⁻¹ s⁻¹
